According to US20160326228A1 (ACCELERON PHARMA, published 2016):
One block for each binder: values may come before it.

B1: ActRIIB(20-134)-hFc (Fc fusion)
chain: GRGEAETRECIYYNANWELERTNQSGLERCEGEQDKRLHCYASWRNSSGTIELVKKGCWLDDFNCYDRQECVATEENPQVYFCCCEGNFCNERFTHLPEAGGPEVTYEPPPTAPT
notes: not shown: linker (if any) and human Fc (hFc)
B2: Growth and Differentiation Factor-11 (GDF11) (ligand, UniProt O95390 299-407, looked up)
chain: NLGLDCDEHSSESRCCRYPLTVDFEAFGWDWIIAPKRYKANYCSGQCEYMFMQKYPHTHLVQQANPRGSAGPCCTPTKMSPINMLYFNDKQQIIYGKIPGMVVDRCGCS
notes: also called BMP11
B3: Soluble ActRIIB-Fc +15tail (Fc fusion, UniProt Q13705 19-134, looked up)
chain: SGRGEAETRECIYYNANWELERTNQSGLERCEGEQDKRLHCYASWANSSGTIELVKKGCWLDDFNCYDRQECVATEENPQVYFCCCEGNFCNERFTHLPEAGGPEVTYEPPPTAPT
notes: whole entry named; not shown: linker (if any) and Fc

Legend:
[1] = target: T1, Activin A (UniProt P08476 311-426); test: Biacore; steady-state affinity fit
T1 construct: also called ActA
T1 sequence (looked up): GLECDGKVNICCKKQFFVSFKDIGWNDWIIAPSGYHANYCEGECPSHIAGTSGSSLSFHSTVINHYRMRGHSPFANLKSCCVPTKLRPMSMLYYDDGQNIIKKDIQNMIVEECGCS
Procedure: (§1) The affinity of GDF Traps and other ActRIIB-hFc proteins for several ligands was evaluated in vitro with a BiacoreTM instrument. Kd values were obtained by steady-state affinity fit due to the very rapid association and dissociation of the complex, which prevented accurate determination of kₒₙ and koff.

[2] = target: T2, Activin B (UniProt P09529 293-407); test: Biacore; steady-state affinity fit
T2 sequence (looked up): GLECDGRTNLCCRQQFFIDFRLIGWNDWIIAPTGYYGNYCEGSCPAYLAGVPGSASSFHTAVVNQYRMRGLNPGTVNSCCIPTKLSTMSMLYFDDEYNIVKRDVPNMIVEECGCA
Procedure: as §1

[3] = target: T1, Activin A; test: BiaCore; receptor-Fc captured by anti-hFc antibody, ligand injected
Procedure: (§2) Binding of certain ActRIIB-Fc proteins and GDF Traps to ligands was tested in a BiaCore™ assay.
(§3) The ActRIIB-Fc variants or wild-type protein were captured onto the system using an anti-hFc antibody. Ligands were injected and flowed over the captured receptor proteins.

[4] = target: T1, Activin A; test: cell-based or functional assay
[5] = target: B2; test: cell-based or functional assay
[6] = target: B3; test: BiaCore; ligand coupled, receptor flowed over; +15tail construct; ligand coupled to the device, receptor flowed over (data from WO2006/012627)
[7] = target: B1; test: Biacore; steady-state affinity fit
Procedure: as §1

[8] = target: B1; test: BiaCore; receptor-Fc captured by anti-hFc antibody, ligand injected
Procedure: as §2, §3

[9] = target: T1, Activin A; test: BiaCore; ligand coupled, receptor flowed over; ligand coupled to the device, receptor flowed over (data from WO2006/012627)
[10] = target: B2; test: BiaCore; ligand coupled, receptor flowed over; WT (64R) construct; ligand coupled to the device, receptor flowed over (data from WO2006/012627)

Binder: B1
Kd [1]: 0.016 nM | Kd [2]: 0.012 nM | Kd [3]: 0.0268 nM | koff [3]: 0.000159 s⁻¹ | kon [3]: 5.94e+06 M⁻¹ s⁻¹ | IC50 (ng/mL), A-204 reporter gene assay, conditioned media [4]: 22 ng/mL | IC50 (ng/mL), A-204 reporter gene assay, conditioned media [5]: 45 ng/mL

Binder: B2
Kd [6]: 19 nM | Kd [7]: 0.036 nM | Kd [8]: 0.0842 nM | koff [8]: 0.000113 s⁻¹ | kon [8]: 1.34e+06 M⁻¹ s⁻¹

Binder: B3
Kd [9]: ~26 nM

Kd [10]: 86 nM
B4: Soluble ActRIIB-Fc WT (64R) (Fc fusion)
chain: GRGEAETRECIYYNANWELERTNQSGLERCEGEQDKRLHCYASWRNSSGTIELVKKGCWLDDFNCYDRQECVATEENPQVYFCCCEGNFCNERFTHLPEA
notes: as for B3
